This note sets out measurements from patent US20200377590A1 (Hoffmann-La Roche, published 2020).

T1: CD81 (UniProt P60033 1-236, limits assumed)
T1 construct: whole, on cells; also called CD81 receptor
T1 sequence (looked up): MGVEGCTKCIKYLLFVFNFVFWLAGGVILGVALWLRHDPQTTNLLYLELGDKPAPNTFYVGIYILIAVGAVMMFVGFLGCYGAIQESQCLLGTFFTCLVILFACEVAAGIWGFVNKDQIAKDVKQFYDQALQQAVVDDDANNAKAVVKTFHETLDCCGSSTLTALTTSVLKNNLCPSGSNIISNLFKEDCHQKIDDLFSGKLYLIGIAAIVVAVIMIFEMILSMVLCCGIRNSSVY

B1: CD81K13 HC 01-hVH_1_f / LC 06-hVK_1_39 (antibody, V domains shown)
VH: EVQLVQSGAEVKKPGATVKISCKVSGYTFTDSYMHWVQQAPGKGLEWMGRIDTGNGNVKFDPKFQGRVTITADTSTDTAYMELSSLRSEDTAVYYCAPYGYGFHSWGQGTLVTVSS
VL: DIQMTQSPSSLSASVGDRVTITCRASENIYRTLAWYQQKPGKAPKLLIYAATTLASGVPSRFSGSGSGTDFTLTISSLQPEDFGTYYCQHFWGTPWTFGQGTKVEIK
notes: human constant region
B2: CD81K13 HC 05-hVH_1_69 / LC 05-hVK_1_39 (antibody, V domains shown)
VH: QVQLVQSGAEVKKPGSSVKVSCKASGFNFKDSYLHWVRQAPGQGLEWMGRIDTGNGNVKFDPKFQGRVTITTDESTSTAYMELSSLRSEDTAVYYCVPYGYGFHSWGQGTLVTVSS
VL: B1 VL with G84A
notes: human constant region
B3: CD81K13 HC 02-hVH_1_3 / LC 04-hVK_1_9 (antibody, V domains shown)
VH: QVQLVQSGAEVKKPGASVKVSCKASGYTFTDSYMHWVRQAPGQRLEWMGRIDTGNGNTKYSQKFQGRVTITTDTSASTAYMELSSLRSEDTAVYYCAPYGYGFHSWGQGTLVTVSS
VL: B1 VL with M4L, S10F, D70E
notes: human constant region
B4: CD81K13 HC 02-hVH_1_3 / LC 5b-hVK_1_39-GA (antibody, V domains shown)
VH: B3 VH
VL: B1 VL with A50G, S56D, G84A
notes: human constant region
B5: CD81K13 HC 02-hVH_1_3 / LC 06-hVK_1_39 (antibody, V domains shown)
VH: B3 VH
VL: B1 VL
notes: human constant region
B6: CD81K13 HC 02-hVH_1_3 / LC 5b-hVK_1_39 (antibody, V domains shown)
VH: B3 VH
VL: B1 VL with A50G, S56D, G84A
notes: human constant region
B7: CD81K13 HC 02-hVH_1_3 / LC 03-hVK_1_9 (antibody, V domains shown)
VH: B3 VH
VL: B1 VL with M4L, S10F, D70E, G84A
notes: human constant region
B8: CD81K13 HC 02-hVH_1_3 / LC 05-hVK_1_39 (antibody, V domains shown)
VH: B3 VH
VL: B1 VL with G84A
notes: human constant region
B9: CD81K13 HC 01-hVH_1_f / LC 07-hVK_1_27 (antibody, V domains shown)
VH: B1 VH
VL: B1 VL with A43V, F83V, H90K
notes: human constant region
B10: CD81K13 HC 03-hVH_1_69 / LC 03-hVK_1_9 (antibody, V domains shown)
VH: B2 VH with F60Y, D61A, P62Q, T72A, V97A
VL: B1 VL with M4L, S10F, D70E, G84A
notes: human constant region
B11: CD81K13 HC 03-hVH_1_69 / LC 04-hVK_1_9 (antibody, V domains shown)
VH: B2 VH with F60Y, D61A, P62Q, T72A, V97A
VL: B1 VL with M4L, S10F, D70E
notes: human constant region
B12: CD81K13 HC 05-hVH_1_69 / LC 1c-hVK_3_15 (antibody, V domains shown)
VH: B2 VH
VL: EIVMTQSPATLSVSPGERATLSCRASENIYRTLAWYQQKPGQAPRLLIYGATTLADGIPARFSGSGSGTEFTLTISSLQSEDFGVYYCQHFWGTPWTFGQGTKVEIK
notes: human constant region
B13: CD81K13 HC 07-hVH_1_3 / LC 1b-hVK_3_15 (antibody, V domains shown)
VH: B2 VH with S16A, F27Y, N28T, E74T, T76A, V97A
VL: B12 VL with G84A
notes: human constant region
B14: CD81K13 HC 07-hVH_1_3 / LC 1c-hVK_3_15 (antibody, V domains shown)
VH: B2 VH with S16A, F27Y, N28T, E74T, T76A, V97A
VL: B12 VL
notes: human constant region
B15: CD81K13 HC 03-hVH_1_69 / LC 1c-hVK_3_15 (antibody, V domains shown)
VH: B2 VH with F60Y, D61A, P62Q, T72A, V97A
VL: B12 VL
notes: human constant region
B16: CD81K13 HC 5b-hVH_1_69 / LC 01-hVK_3_15 (antibody, V domains shown)
VH: B2 VH with V11L, K12V
VL: B12 VL with L54R, D56T
notes: human constant region
B17: CD81K13 HC 06-hVH_1_3 / LC 1b-hVK_3_15 (antibody, V domains shown)
VH: B3 VH with T30K, M34L, T58V, Y60F, S61D, Q62P
VL: B12 VL with G84A
notes: human constant region
B18: CD81K13 HC 07-hVH_1_3 / LC 01-hVK_3_15 (antibody, V domains shown)
VH: B2 VH with S16A, F27Y, N28T, E74T, T76A, V97A
VL: B12 VL with L54R, D56T
notes: human constant region
B19: CD81K13 HC 06-hVH_1_3 / LC 1c-hVK_3_15 (antibody, V domains shown)
VH: B3 VH with T30K, M34L, T58V, Y60F, S61D, Q62P
VL: B12 VL
notes: human constant region
B20: CD81K13 HC 5b-hVH_1_69 / LC 1b-hVK_3_15 (antibody, V domains shown)
VH: B2 VH with V11L, K12V
VL: B12 VL with G84A
notes: human constant region
B21: CD81K13 HC 05-hVH_1_69 / LC 1b-hVK_3_15 (antibody, V domains shown)
VH: B2 VH
VL: B12 VL with G84A
notes: human constant region
B22: CD81K13 HC 05-hVH_1_69 / LC 01-hVK_3_15 (antibody, V domains shown)
VH: B2 VH
VL: B12 VL with L54R, D56T
notes: human constant region
B23: CD81K13 HC 5b-hVH_1_69-GA / LC 1c-hVK_3_15 (antibody, V domains shown)
VH: B2 VH with V11L, K12V
VL: B12 VL
notes: human constant region
B24: CD81K13 HC 5b-hVH_1_69 / LC 1c-hVK_3_15 (antibody, V domains shown)
VH: B2 VH with V11L, K12V
VL: B12 VL
notes: human constant region
B25: CD81K13 HC 06-hVH_1_3 / LC 01-hVK_3_15 (antibody, V domains shown)
VH: B3 VH with T30K, M34L, T58V, Y60F, S61D, Q62P
VL: B12 VL with L54R, D56T
notes: human constant region
B26: CD81K13 HC 5b-hVH_1_69-GA / LC 1b-hVK_3_15 (antibody, V domains shown)
VH: B2 VH with V11L, K12V
VL: B12 VL with G84A
notes: human constant region
B27: CD81K13 HC 03-hVH_1_69 / LC 01-hVK_3_15 (antibody, V domains shown)
VH: B2 VH with F60Y, D61A, P62Q, T72A, V97A
VL: B12 VL with L54R, D56T
notes: human constant region
B28: CD81K13 HC 5b-hVH_1_69-GA / LC 01-hVK_3_15 (antibody, V domains shown)
VH: B2 VH with V11L, K12V
VL: B12 VL with L54R, D56T
notes: human constant region
B29: CD81K13 HC 03-hVH_1_69 / LC 1b-hVK_3_15 (antibody, V domains shown)
VH: B2 VH with F60Y, D61A, P62Q, T72A, V97A
VL: B12 VL with G84A
notes: human constant region
B30: CD81K13 HC 02-hVH_1_3 / LC CD81K13 (antibody, V domains shown)
VH: B3 VH
VL: DIQMTQSPASLSVSVGETVTITCRASENIYRTLAWYLQKQGKSPQLLVYGATTLADGVPSRFSGSGSGTQYYLKINSLQSEDFGTYHCQHFWGTPWTFGGGTKVEIK
notes: human constant region
B31: CD81K13 HC 02-hVH_1_3 / LC 01-hVK_3_15 (antibody, V domains shown)
VH: B3 VH
VL: B12 VL with L54R, D56T
notes: human constant region
B32: CD81K13 HC 02-hVH_1_3 / LC 1c-hVK_3_15 (antibody, V domains shown)
VH: B3 VH
VL: B12 VL
notes: human constant region
B33: CD81K13 HC 05-hVH_1_69 / LC CD81K13 (antibody, V domains shown)
VH: B2 VH
VL: B30 VL
notes: human constant region
B34: CD81K13 HC 02-hVH_1_3 / LC 1b-hVK_3_15 (antibody, V domains shown)
VH: B3 VH
VL: B12 VL with G84A
notes: human constant region
B35: CD81K13 HC 5b-hVH_1_69 / LC CD81K13 (antibody, V domains shown)
VH: B2 VH with V11L, K12V
VL: B30 VL
notes: human constant region
B36: CD81K13 HC 07-hVH_1_3 / LC CD81K13 (antibody, V domains shown)
VH: B2 VH with S16A, F27Y, N28T, E74T, T76A, V97A
VL: B30 VL
notes: human constant region
B37: CD81K13 HC 5b-hVH_1_69-GA / LC CD81K13 (antibody, V domains shown)
VH: B2 VH with V11L, K12V
VL: B30 VL
notes: human constant region
B38: CD81K13 HC 03-hVH_1_69 / LC CD81K13 (antibody, V domains shown)
VH: B2 VH with F60Y, D61A, P62Q, T72A, V97A
VL: B30 VL
notes: human constant region
B39: CD81K13 HC 06-hVH_1_3 / LC CD81K13 (antibody, V domains shown)
VH: B3 VH with T30K, M34L, T58V, Y60F, S61D, Q62P
VL: B30 VL
notes: human constant region

Positions count from the first letter of the chain named.
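Also: antibody binding to HuH7 cells expressing CD81 versus a CD81-negative HuH7 control line, bound antibody detected by secondary reagent, absorbance at 450 nm with 620 nm reference.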

The target in this assay is T1, CD81. The assay can be described thus: cell ELISA. (An ELISA detects its analyte on a solid surface through an enzyme-linked reagent.)
Method: For the binding cell ELISA assay, HuH7-Rluc-H3 (positive cell line expressing CD81) and HuH7-Rluc-L1 (negative control cell line) were propagated in F-12 DMEM medium with 10% FCS at 37° C. and 5% CO₂. On day 1, the cells were trypsinized at approximately 90% confluence and resuspended at 4×10⁵ cells/mL. […] On day 2, the antibody samples to be tested were prepared in a separate polypropylene round bottom plate with a twofold desired concentration with a final volume of 120 μl. All of the assay samples were diluted in cell culture medium. […] After fixation, each well was washed 3 times with 200 μL PBS/0.05% Tween. The secondary incubation step for detection of bound anti-CD81 antibodies was performed for 2 h at room temperature on a reciprocal shaker. […] Each well was washed three times with 200 μL PBS/0.05% Tween to remove unbound antibodies. […] The absorbance was read using the ELISA Tecan reader at 450 nm with 620 nm reference wavelength.
On to B1, for which the ELISA data was 0.822.
In turn, B2 returned an ELISA data of 0.91.
Then B3, with 0.163.
In the case of B4, the ELISA data was found to be 0.247.
In turn, B5 displayed an ELISA data of 0.251.
Next, B6: 0.29; B7: 0.13; B8: 0.161.
B9 gave an ELISA data of 0.086.
As for B10, the ELISA data amounted to 0.208.
Then B11, with 0.188.
Molecule B12 showed an ELISA data of 0.767.
With B13, the ELISA data came out at 0.367.
Regarding B14, the ELISA data was found to be 0.337.
Next, B15: 0.252; B16: 0.749.
Turning to B17, the ELISA data was found to be 0.394.
As to B18, the ELISA data came out at 0.459.
B19 yielded an ELISA data of 0.34.
The molecule B20 showed an ELISA data of 0.646.
Next, B21: 0.624; B22: 0.684.
As for B23, the ELISA data was 0.794.
As to B24, the ELISA data stood at 0.701.
B25: the ELISA data was 0.547.
With B26, the ELISA data turned out to be 0.648.
In the case of B27, the ELISA data is 0.649.
As for B28, the ELISA data came to 0.739.
Then B29, with 0.403.
In turn, B30 showed an ELISA data of 0.585.
Then B31, with 0.314.
Molecule B32 registered an ELISA data of 0.283.
For B33, the ELISA data was 0.94.
For the molecule B34, the ELISA data was 0.347.
Turning to B35, the ELISA data stood at 0.813.
For the molecule B36, the ELISA data was determined as 0.572.
In turn, B37 came in with an ELISA data of 0.935.
As to B38, the ELISA data is 0.787.
The molecule B39 came in with an ELISA data of 0.447.
